In publication PMC9601868:

Legend:
[1] = molecular target: ZFP932 KRAB domain (5–76), AviTagged, monobiotinylated (murine); assay: SPR; Biacore X100, Sensor Chip CAP; monobiotinylated KRAB domain immobilised (~100 RU); 1 μM Trim28 RBCC injected 60 s, 600 s wash; 10 mM TRIS/HCl pH 8.0, 300 mM NaCl, 0.1 mM TCEP, 0.005% tween 20; kinetic analysis, two-state reaction model
[2] = molecular target: ZFP932 KRAB domain (5–76), AviTagged, monobiotinylated (murine); assay: SPR; Biacore X100, Sensor Chip CAP; monobiotinylated KRAB domain immobilised; concentration series of Trim28 RBCC, 60 s injections; 10 mM TRIS/HCl pH 8.0, 300 mM NaCl, 0.1 mM TCEP, 0.005% tween 20; equilibrium analysis

ZFP932 KRAB domain (5–76), AviTagged, monobiotinylated (murine), sequence (E9QAG8 5-76): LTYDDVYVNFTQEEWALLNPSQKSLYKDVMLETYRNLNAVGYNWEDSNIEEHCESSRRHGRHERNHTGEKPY

Row | Substance | Kd [1] [nM] | Kd [2] [nM]
1 | Trim28 RBCC (58–418) L301A (from UniProt Q62318 58-418) (domain or fragment) |  | 6500
2 | Trim28 RBCC (58–418) M304S (from UniProt Q62318 58-418) (domain or fragment) | 20.3 | 
3 | Trim28 RBCC (58–418) I300S (from UniProt Q62318 58-418) (domain or fragment) | 35.8 | 
4 | Trim28 RBCC (58–418) V294S (from UniProt Q62318 58-418) (domain or fragment) | 319 | 
5 | Trim28 RBCC (58–418) I300A (from UniProt Q62318 58-418) (domain or fragment) | 26.3 | 
6 | Trim28 RBCC (58–418) M298S (from UniProt Q62318 58-418) (domain or fragment) | 671 | 
7 | Trim28 RBCC (58–418) R312A (from UniProt Q62318 58-418) (domain or fragment) | 27.8 | 
8 | Trim28 RBCC (58–418) K290A (from UniProt Q62318 58-418) (domain or fragment) | 37.3 | 

Continued, values first:

Row | Kd [1] [nM] | Kd [2] [nM] | Substance
9 | 132 |  | Trim28 RBCC (58–418) K290E (from UniProt Q62318 58-418) (domain or fragment)
10 | 31.1 |  | Trim28 RBCC (58–418) K305A (from UniProt Q62318 58-418) (domain or fragment)
11 | 24.2 |  | Trim28 RBCC (58–418) M304A (from UniProt Q62318 58-418) (domain or fragment)
12 | 212 |  | Trim28 RBCC (58–418) R312E (from UniProt Q62318 58-418) (domain or fragment)
13 |  | 30800 | Trim28 RBCC (58–418) L301S (from UniProt Q62318 58-418) (domain or fragment)
14 |  | 15900 | Trim28 RBCC (58–418) K305E (from UniProt Q62318 58-418) (domain or fragment)
15 | 113 |  | Trim28 RBCC (58–418) V294A (from UniProt Q62318 58-418) (domain or fragment)
16 | 324 |  | Trim28 RBCC (58–418) M298A (from UniProt Q62318 58-418) (domain or fragment)
17 | 14.6 |  | Trim28 RBCC (58–418), wild type (from UniProt Q62318 58-418) (domain or fragment)
18 | 54.1 |  | Trim28 RBCC (58–418) K297A (from UniProt Q62318 58-418) (domain or fragment)
